This experiment has as its target T1, Wild-type EGFR-GFP (UniProt P00533 25-1210).
T1 construct: whole, on cells; not shown: GFP fusion
Briefly: co-localization by confocal and 3D-SIM microscopy, co-overexpression in CL1-5 cells (FIG. 1C). The source says: FIGS. 1A-1C show interaction between PINK1 and EGFR in lung adenocarcinoma cells. […] 3D-structured illumination microscopy images specifically disclosed the interaction beneath the cytoplasmic membrane (III and IV).

B1: myc-fused full-length PINK1 construct (amino acids 1-581) (enzyme)
chain: MAVRQALGRGLQLGRALLLRFTGKPGRAYGLGRPGPAAGCVRGERPGWAAGPGAEPRRVGLGLPNRLRFFRQSVAGLAARLQRQFVVRAWGCAGPCGRAVFLAFGLGLGLIEEKQAESRRAVSACQEIQAIFTQKSKPGPDPLDTRRLQGFRLEEYLIGQSIGKGCSAAVYEATMPTLPQNLEVTKSTGLLPGRGPGTSAPGEGQERAPGAPAFPLAIKMMWNISAGSSSEAILNTMSQELVPASRVALAGEYGAVTYRKSKRGPKQLAPHPNIIRVLRAFTSSVPLLPGALVDYPDVLPSRLHPEGLGHGRTLFLVMKNYPCTLRQYLCVNTPSPRLAAMMLLQLLEGVDHLVQQGIAHRDLKSDNILVELDPDGCPWLVIADFGCCLADESIGLQLPFSSWYVDRGGNGCLMAPEVSTARPGPRAVIDYSKADAWAVGAIAYEIFGLVNPFYGQGKAHLESRSYQEAQLPALPESVPPDVRQLVRALLQREASKRPSARVAANVLHLSLWGEHILALKNLKLDKMVGWLLQQSAATLLANRLTEKCCVETKMKMLFLANLECETLCQAALLLCSWRAAL
notes: also called PINK1-myc; not shown: myc tag
For the molecule B1, the binding result is recorded as “binds”.

Source of the values: US20180112192A1 (NATIONAL TAIWAN UNIVERSITY, published 2018).
